Measurements taken from US20180346565A1 (AbbVie / Abbott, published 2018).

Molecular target: T1, DLL3 purified protein (human, UniProt Q9NYJ7 27-492, limits assumed)
T1 construct: also called purified DLL3; immobilized human DLL3
T1 sequence (looked up): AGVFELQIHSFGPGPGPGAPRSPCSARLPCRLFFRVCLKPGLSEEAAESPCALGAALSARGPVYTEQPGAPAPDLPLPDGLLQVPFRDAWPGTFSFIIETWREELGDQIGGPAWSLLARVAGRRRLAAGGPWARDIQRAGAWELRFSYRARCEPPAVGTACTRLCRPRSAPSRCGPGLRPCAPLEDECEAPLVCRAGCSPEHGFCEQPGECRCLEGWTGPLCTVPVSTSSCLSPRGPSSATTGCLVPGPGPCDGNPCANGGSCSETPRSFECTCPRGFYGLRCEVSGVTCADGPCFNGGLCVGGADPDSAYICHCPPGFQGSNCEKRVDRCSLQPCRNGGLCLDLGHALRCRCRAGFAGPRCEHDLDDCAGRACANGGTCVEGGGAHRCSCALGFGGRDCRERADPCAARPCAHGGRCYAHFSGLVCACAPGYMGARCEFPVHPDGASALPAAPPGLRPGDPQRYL
Assay: ELISA, plate coated with 1 ug/ml purified DLL3, serially diluted antibody, detection with HRP-conjugated anti-human IgG1 reporter mAb, TMB, OD450
Source text: Site-specific anti-DLL3 antibodies fabricated as set forth in the previous Examples were screened by an ELISA assay to determine whether they bound to DLL3 purified protein. The parental native antibody was used as a control and run alongside the site-specific anti-DLL3 antibody. Binding of the antibodies to DLL3 was detected with a monoclonal antibody (mAb) reporter antibody conjugated to horseradish peroxidase (HRP), (Southern Biotech, Cat. No. SB9052-05), which binds to an epitope present on human IgG1 molecules. HRP reacts with its substrate tetramethyl benzidine (TMB). The amount of […] TMB is directly proportional to the amount of test antibody bound to DLL3.
ELISA plates were coated with 1 μg/ml purified DLL3 in PBS and incubated overnight at 4° C. Excess protein was removed by washing and the wells were blocked with 2% (w/v) BSA in PBS with 0.05% tween 20 (PBST), 200 μL/well for 1 hour at room temperature. After washing, 100 μL/well serially diluted antibody or ADC were added in PBST for 1 hour at room temperature. The plates were washed again and 0.5 ug/ml of 100 μL/well of the appropriate reporter antibody was added in PBST for 1 hour at room temperature. […] The samples were then analyzed by spectrophotometer at OD 450.

B1: hSC16.56 (antibody, human IgG1, kappa, V domains shown)
VH: QVQLVQSGAEVKKPGASVKVSCKASGYTFTNYGMNWVRQAPGQGLEWMGWINTYTGEPTYADDFKGRVTMTTDTSTSTAYMELRSLRSDDTAVYYCARIGDSSPSDYWGQGTLVTVSS
VL: EIVMTQSPATLSVSPGERATLSCKASQSVSNDVVWYQQKPGQAPRLLIYYASNRYTGIPARFSGSGSGTEFTLTISSLQSEDFAVYYCQQDYTSPWTFGQGTKLEIKR
notes: Native human IgG1/kappa; also called humanized SC16.56; humanized anti-DLL3 antibody hSC16.56
  EC50 (read off the curve): ~10 ng/mL
